# Source: patent publication US20240199761A1 (AstraZeneca / MedImmune, published 2024)
# T1: cynomolgus PAD2 haplotype N55D, N82S (37.5%) (cynomolgus, UniProt G7NUR0 1-665)
# T1 chain: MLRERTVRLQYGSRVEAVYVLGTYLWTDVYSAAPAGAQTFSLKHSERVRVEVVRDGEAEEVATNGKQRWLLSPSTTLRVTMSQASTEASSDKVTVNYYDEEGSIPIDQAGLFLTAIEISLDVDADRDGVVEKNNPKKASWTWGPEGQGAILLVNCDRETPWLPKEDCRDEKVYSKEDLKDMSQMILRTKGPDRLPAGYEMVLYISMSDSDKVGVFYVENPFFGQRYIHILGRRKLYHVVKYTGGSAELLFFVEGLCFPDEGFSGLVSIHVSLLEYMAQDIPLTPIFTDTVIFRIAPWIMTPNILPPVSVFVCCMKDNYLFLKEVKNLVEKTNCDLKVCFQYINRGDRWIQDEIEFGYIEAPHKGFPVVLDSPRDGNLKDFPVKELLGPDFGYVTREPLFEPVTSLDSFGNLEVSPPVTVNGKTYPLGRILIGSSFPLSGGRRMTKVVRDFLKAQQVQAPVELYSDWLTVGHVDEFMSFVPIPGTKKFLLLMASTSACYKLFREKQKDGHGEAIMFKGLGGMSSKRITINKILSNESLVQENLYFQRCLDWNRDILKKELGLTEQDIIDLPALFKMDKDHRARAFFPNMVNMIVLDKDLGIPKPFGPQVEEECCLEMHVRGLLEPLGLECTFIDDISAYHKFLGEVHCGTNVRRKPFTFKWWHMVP
# T2: cynomolgus PAD2 haplotype N55D, T63A, N82S (9.4%) (cynomolgus, UniProt G7NUR0 1-665)
# T2 chain: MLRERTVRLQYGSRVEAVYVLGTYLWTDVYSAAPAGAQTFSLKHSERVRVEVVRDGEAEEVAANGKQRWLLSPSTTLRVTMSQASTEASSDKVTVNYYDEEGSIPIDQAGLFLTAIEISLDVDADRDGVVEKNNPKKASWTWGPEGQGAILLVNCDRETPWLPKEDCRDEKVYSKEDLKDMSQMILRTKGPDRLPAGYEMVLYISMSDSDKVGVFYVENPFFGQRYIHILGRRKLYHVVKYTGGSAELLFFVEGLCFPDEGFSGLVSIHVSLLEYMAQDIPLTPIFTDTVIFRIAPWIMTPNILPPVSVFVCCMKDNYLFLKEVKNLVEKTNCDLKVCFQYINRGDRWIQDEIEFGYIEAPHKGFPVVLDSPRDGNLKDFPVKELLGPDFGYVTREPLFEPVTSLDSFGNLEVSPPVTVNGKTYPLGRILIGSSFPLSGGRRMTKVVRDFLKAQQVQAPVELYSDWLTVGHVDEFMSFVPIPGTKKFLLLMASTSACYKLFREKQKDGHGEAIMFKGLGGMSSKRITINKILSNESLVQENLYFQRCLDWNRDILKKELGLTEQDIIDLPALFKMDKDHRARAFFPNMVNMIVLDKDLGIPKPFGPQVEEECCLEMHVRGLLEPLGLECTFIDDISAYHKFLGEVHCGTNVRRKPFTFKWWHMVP
# What was measured:
# recombinant human PAD2 [1] = biological target: recombinant human PAD2 (human, UniProt Q9Y2J8 1-665); experiment: cell-based or functional assay
# huFcRn = biological target: T3, huFcRn (human, UniProt P55899 24-297; P61769 21-119, limits assumed); experiment: huFcRn affinity chromatography, pH gradient elution
# T3 construct: also called human neonatal Fc receptor
# recombinant mouse PAD2 = biological target: T4, recombinant mouse PAD2 (mouse, UniProt Q08642 1-673); experiment: ratio of SPR KDs, mouse PAD2 against human PAD2; antibody captured on C1-Protein G', PAD flowed over
# T4 construct: Recombinant and tagged
# [2] = biological target: T5, human PAD2, recombinant, tags at the N-terminus (human, UniProt Q9Y2J8 1-665, enzymatically biotinylated on an Avi-tag where captured on streptavidin); experiment: SPR; antibody on C1-Protein G', PAD2 flowed over
# T5 construct: not shown: N-terminal tags incl; Avi-tag
# [3] = biological target: T6, cynomolgus PAD2, recombinant, tags at the N-terminus (cynomolgus, UniProt G7NUR0 1-665, enzymatically biotinylated on an Avi-tag where captured on streptavidin); experiment: SPR; antibody on C1-Protein G', PAD2 flowed over
# T6 construct: also called Cyno PAD2; not shown: N-terminal tags incl; Avi-tag
# [4] = biological target: T7, mouse PAD2, recombinant, tags at the N-terminus (mouse, UniProt Q08642 1-673, enzymatically biotinylated on an Avi-tag where captured on streptavidin); experiment: SPR; antibody on C1-Protein G', PAD2 flowed over
# T7 construct: not shown: N-terminal tags incl; Avi-tag
# [5] = biological target: T5, human PAD2, recombinant, tags at the …; experiment: SPR; antibody on C1-Protein G', PAD2 flowed over; remark: listed apart in the source
# [6] = biological target: T6, cynomolgus PAD2, recombinant, tags at …; experiment: SPR; antibody on C1-Protein G', PAD2 flowed over; remark: listed apart in the source
# [7] = biological target: T7, mouse PAD2, recombinant, tags at the …; experiment: SPR; antibody on C1-Protein G', PAD2 flowed over; remark: listed apart in the source
# recombinant human PAD2 [8] = biological target: recombinant human PAD2 (human, UniProt Q9Y2J8 1-665, enzymatically biotinylated on an Avi-tag (when captured on the SPR chip)); experiment: cell-based or functional assay
# [9] = biological target: T5, human PAD2, recombinant, tags at the …; experiment: SPR; antibody captured on a surface, PAD2 flowed over
# [10] = biological target: T6, cynomolgus PAD2, recombinant, tags at …; experiment: as above
# Target sequence in this assay (G7NUR0 entry or part of it): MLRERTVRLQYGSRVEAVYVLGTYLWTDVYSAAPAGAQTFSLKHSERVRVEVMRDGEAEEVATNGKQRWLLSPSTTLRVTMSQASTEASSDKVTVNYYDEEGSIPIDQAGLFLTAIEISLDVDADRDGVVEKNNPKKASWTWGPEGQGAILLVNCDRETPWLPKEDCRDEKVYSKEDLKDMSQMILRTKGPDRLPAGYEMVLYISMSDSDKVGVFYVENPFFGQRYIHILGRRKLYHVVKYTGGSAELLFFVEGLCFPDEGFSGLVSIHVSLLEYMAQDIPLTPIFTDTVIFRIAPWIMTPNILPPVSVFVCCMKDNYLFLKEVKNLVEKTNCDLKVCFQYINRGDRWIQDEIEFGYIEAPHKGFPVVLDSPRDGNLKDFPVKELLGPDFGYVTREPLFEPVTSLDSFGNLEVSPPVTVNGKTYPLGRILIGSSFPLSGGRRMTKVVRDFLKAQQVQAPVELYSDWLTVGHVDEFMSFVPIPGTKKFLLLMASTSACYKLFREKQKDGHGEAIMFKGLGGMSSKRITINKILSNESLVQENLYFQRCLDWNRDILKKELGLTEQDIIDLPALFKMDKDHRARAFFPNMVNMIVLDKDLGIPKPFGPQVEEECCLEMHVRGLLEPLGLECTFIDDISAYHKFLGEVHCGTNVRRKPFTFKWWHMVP
# [11] = biological target: T7, mouse PAD2, recombinant, tags at the …; experiment: as above
# [12] = biological target: T1, cynomolgus PAD2 haplotype N55D, N82S …; experiment: SPR; antibody captured on C1-Protein G', PAD2 flowed over
# [13] = biological target: T2, cynomolgus PAD2 haplotype N55D, T63A, …; experiment: as above
# [14] = biological target: T5, human PAD2, recombinant, tags at the …; experiment: SPR; biotinylated antibody on C1-streptavidin, PAD2 flowed over
# [15] = biological target: T6, cynomolgus PAD2, recombinant, tags at …; experiment: as above
# [16] = biological target: T5, human PAD2, recombinant, tags at the …; experiment: as above; remark: listed apart in the source
# [17] = biological target: T6, cynomolgus PAD2, recombinant, tags at …; experiment: as above; remark: listed apart in the source
# T5 sequence (Q9Y2J8 whole entry): as the sequence (G7NUR0 entry or part of it) above, with R47H, R49W, M53V, M200I, D334E, I342L, P401S, K577E counted along it
# T3 sequence (P55899 24-297 limits assumed, chain 1 of 2): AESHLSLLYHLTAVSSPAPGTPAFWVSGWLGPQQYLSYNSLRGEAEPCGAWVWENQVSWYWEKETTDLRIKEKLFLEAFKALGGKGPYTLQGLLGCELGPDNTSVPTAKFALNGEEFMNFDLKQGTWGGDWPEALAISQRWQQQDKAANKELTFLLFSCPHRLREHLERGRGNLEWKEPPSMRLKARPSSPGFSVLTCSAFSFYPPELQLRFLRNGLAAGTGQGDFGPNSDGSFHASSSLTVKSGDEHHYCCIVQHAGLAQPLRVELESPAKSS
# T3 sequence (P61769 21-119 limits assumed, chain 2 of 2): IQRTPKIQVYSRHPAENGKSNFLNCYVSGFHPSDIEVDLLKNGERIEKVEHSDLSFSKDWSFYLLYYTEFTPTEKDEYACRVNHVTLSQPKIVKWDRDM
# T7 sequence (Q08642 whole entry): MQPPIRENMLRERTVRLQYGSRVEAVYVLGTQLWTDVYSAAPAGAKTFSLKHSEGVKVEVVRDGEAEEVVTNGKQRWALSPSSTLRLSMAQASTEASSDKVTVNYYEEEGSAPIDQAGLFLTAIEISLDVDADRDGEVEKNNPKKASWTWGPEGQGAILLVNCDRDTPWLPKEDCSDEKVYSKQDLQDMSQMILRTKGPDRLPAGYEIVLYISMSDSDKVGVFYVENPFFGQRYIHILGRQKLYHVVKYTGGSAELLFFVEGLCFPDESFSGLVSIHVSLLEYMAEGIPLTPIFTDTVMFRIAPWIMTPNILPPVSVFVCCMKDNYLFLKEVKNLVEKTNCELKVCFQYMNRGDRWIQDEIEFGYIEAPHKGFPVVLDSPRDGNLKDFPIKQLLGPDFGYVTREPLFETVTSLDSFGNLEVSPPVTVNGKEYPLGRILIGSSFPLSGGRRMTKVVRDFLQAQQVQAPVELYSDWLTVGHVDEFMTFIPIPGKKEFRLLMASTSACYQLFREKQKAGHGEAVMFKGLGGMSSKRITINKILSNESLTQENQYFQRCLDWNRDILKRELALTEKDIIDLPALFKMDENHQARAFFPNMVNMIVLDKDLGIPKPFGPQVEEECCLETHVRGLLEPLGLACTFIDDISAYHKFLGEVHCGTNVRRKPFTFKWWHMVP
# recombinant human PAD2 (human, UniProt Q9Y2J8 1-665), sequence (Q9Y2J8 whole entry): as the sequence (G7NUR0 entry or part of it) above, with R47H, R49W, M53V, M200I, D334E, I342L, P401S, K577E counted along it
# T4 sequence (Q08642 whole entry): as the sequence (Q08642 whole entry) above
# recombinant human PAD2 (human, UniProt Q9Y2J8 1-665, enzymatically biotinylated on an Avi-tag (when captured on the SPR chip)), sequence (Q9Y2J8 whole entry): as the sequence (G7NUR0 entry or part of it) above, with R47H, R49W, M53V, M200I, D334E, I342L, P401S, K577E counted along it
binder,measurement,setting,value
"Clone 07 (Bis3, TM; Fab anti-PAD4, scFv anti-PAD2) (bispecific antibody, human IgG1, lambda, Bivalent bispecific IgG-HC-scFv; also called Clone 7*; PAD240007) heavy: not shown light: QSALTQPRSVSGSPGQSVTISCTGTSGDVGRYSHVSWYQQHPGKAPKLIIYNVYERPSGVPDRFSGSKSGNTASLTISGLQAEDEADYYCSSHSRSSTPVLFGGGTKLTVLGQPKAAPSVTLFPPSSEELQANKATLVCLISDFYPGAVTVAWKADSSPVKAGVETTTPSKQSNNKYAASSYLSLTPEQWKSHRSYSCQVTHEGSTVEKTVAPTECS","Potency (IC50), Histone-H3 assay",recombinant human PAD2 [1],238 pM
same,HPLC retention,huFcRn,17.8 min
same,Relative retention,huFcRn,-0.081
same,"fold difference in KD, mouse/human",recombinant mouse PAD2,1 fold
"Clone 07, Bis3 anti-PAD4 Fab / anti-PAD2 scFv, Fc TM (bispecific antibody, human IgG1, lambda, Bivalent for PAD2 and for PAD4; also called Clone 7*; PAD240007) heavy: not shown light: QSALTQPRSVSGSPGQSVTISCTGTSGDVGRYSHVSWYQQHPGKAPKLIIYNVYERPSGVPDRFSGSKSGNTASLTISGLQAEDEADYYCSSHSRSSTPVLFGGGTKLTVLGQPKAAPSVTLFPPSSEELQANKATLVCLISDFYPGAVTVAWKADSSPVKAGVETTTPSKQSNNKYAASSYLSLTPEQWKSHRSYSCQVTHEGSTVEKTVAPTECS",Kd,[2],0.0161 nM
same,koff,[2],3.21e-05 s⁻¹
same,kon,[2],2e+06 M⁻¹ s⁻¹
same,Kd,[3],0.0219 nM
same,koff,[3],5.46e-05 s⁻¹
same,kon,[3],2.61e+06 M⁻¹ s⁻¹
same,Kd,[4],0.0162 nM
same,koff,[4],4.45e-05 s⁻¹
same,kon,[4],2.76e+06 M⁻¹ s⁻¹
same,Kd,[5],16.1 pM
same,Kd,[6],0.0219 nM
same,Kd,[7],16.2 pM
"Clone 22 (IgG) (141LO0035 hIgG1 pgl-4) (antibody, V domains shown, also called PAD2 IgG) VH: not shown VL: SYVLTQPPSVSVSPGQTASITCSGDKVGDKYVSWYQQKPGQSPVLVIYQDSQRPSGIPERFSGSNSGNTATLTISGTQAMDEADYYCQTWAPDVLLFGSGTKVTVL","Potency (IC50), Histone-H3 assay",recombinant human PAD2 [1],138 pM
same,"fold difference in KD, mouse/human",recombinant mouse PAD2,1.2 fold
"Clone 22 (141LO0035 hIgG1 pgl-4), anti-PAD2, as IgG (antibody, V domains shown) VH: not shown VL: SYVLTQPPSVSVSPGQTASITCSGDKVGDKYVSWYQQKPGQSPVLVIYQDSQRPSGIPERFSGSNSGNTATLTISGTQAMDEADYYCQTWAPDVLLFGSGTKVTVL","potency (IC50), Histone-H3 citrullination ELISA, recombinant PAD2",recombinant human PAD2 [8],< 1 nM
"anti-PAD2 Clone 22 (141LO0035 hIgG1 pgl-4), IgG (antibody, V domains shown, also called Clone 22 (IgG)) VH: not shown VL: SYVLTQPPSVSVSPGQTASITCSGDKVGDKYVSWYQQKPGQSPVLVIYQDSQRPSGIPERFSGSNSGNTATLTISGTQAMDEADYYCQTWAPDVLLFGSGTKVTVL",Kd,[5],3.9 pM
same,Kd,[6],0.011 nM
same,Kd,[7],4.59 pM
same,Kd,[9],3.9 pM
same,koff,[9],1.71e-05 s⁻¹
same,kon,[9],4.36e+06 M⁻¹ s⁻¹
same,Kd,[10],0.011 nM
same,koff,[10],3.33e-05 s⁻¹
same,kon,[10],3.06e+06 M⁻¹ s⁻¹
same,Kd,[11],4.59 pM
same,koff,[11],2.24e-05 s⁻¹
same,kon,[11],4.93e+06 M⁻¹ s⁻¹
"Clone 08 (Bis3, TM; Fab anti-PAD2, scFv anti-PAD4) (bispecific antibody, human IgG1, lambda, Bivalent bispecific IgG-HC-scFv; also called Clone 8*; Clone 8^#) heavy: not shown light: SYVLTQPPSVSVSPGQTASITCSGDKVGDKYVSWYQQKPGQSPVLVIYQDSQRPSGIPERFSGSNSGNTATLTISGTQAMDEADYYCQTWAPDVLLFGSGTKVTVLGQPKAAPSVTLFPPSSEELQANKATLVCLISDFYPGAVTVAWKADSSPVKAGVETTTPSKQSNNKYAASSYLSLTPEQWKSHRSYSCQVTHEGSTVEKTVAPTECS","Potency (IC50), Histone-H3 assay",recombinant human PAD2 [1],94 pM
same,HPLC retention,huFcRn,17 min
same,Relative retention,huFcRn,-0.207
same,Kd,[12],6.4 pM
same,koff,[12],2.65e-05 s⁻¹
same,kon,[12],4.23e+06 M⁻¹ s⁻¹
same,Kd,[13],0.0434 nM
same,koff,[13],6.76e-05 s⁻¹
same,kon,[13],1.58e+06 M⁻¹ s⁻¹
same,"fold difference in KD, mouse/human",recombinant mouse PAD2,1.1 fold
"Clone 08, Bis3 anti-PAD2 Fab / anti-PAD4 scFv, Fc TM (bispecific antibody, human IgG1, lambda, Bivalent for PAD2 and for PAD4; In the rows marked ^# the antibody was chemically biotinylated; also called Clone 8*; Clone 8^#) heavy: not shown light: SYVLTQPPSVSVSPGQTASITCSGDKVGDKYVSWYQQKPGQSPVLVIYQDSQRPSGIPERFSGSNSGNTATLTISGTQAMDEADYYCQTWAPDVLLFGSGTKVTVLGQPKAAPSVTLFPPSSEELQANKATLVCLISDFYPGAVTVAWKADSSPVKAGVETTTPSKQSNNKYAASSYLSLTPEQWKSHRSYSCQVTHEGSTVEKTVAPTECS",Kd,[2],0.00665 nM
same,koff,[2],2.97e-05 s⁻¹
same,kon,[2],4.48e+06 M⁻¹ s⁻¹
same,Kd,[3],0.0167 nM
same,koff,[3],4.52e-05 s⁻¹
same,kon,[3],2.74e+06 M⁻¹ s⁻¹
same,Kd,[4],0.00719 nM
same,koff,[4],3.31e-05 s⁻¹
same,kon,[4],4.65e+06 M⁻¹ s⁻¹
same,Kd,[5],6.65 pM
same,Kd,[6],0.0167 nM
same,Kd,[7],7.19 pM
same,Kd,[14],7.51 pM
same,koff,[14],4.74e-05 s⁻¹
same,kon,[14],5.88e+06 M⁻¹ s⁻¹
same,Kd,[15],0.0121 nM
same,koff,[15],0.0001 s⁻¹
same,kon,[15],9.48e+06 M⁻¹ s⁻¹
same,Kd,[16],7.51 pM
same,Kd,[17],0.0121 nM
